The values that follow come from patent publication US20050196753A1, “Human coactivator-associated arginine methyltransferase 1 (hCARM1)” (priority 2002, published 2005).

One test deals with Histone H3. Kind of test: Methylation assay: methylating activity of purified hCARM1. The test is classed as biochemical. The settings on record: increasing amounts of purified enzyme, constant recombinant Histone H3 (FIG. 2). The method, then: Methylation assay protocol: Reactions were performed in IX methylation buffer containing 20 mM Tris.HCl, pH 8.0, 200 mM NaCl and 0.4 mM EDTA. Reactions were assembled with 2.5 ug of Histone H3 and increasing amounts of hCARM1 (0.25 ug, 0.5 ug, 1.25 ug, 2.5 ug, 3.75 ug, 5 ug, or 7.5 ug). A mock reaction where hCARM1 was omitted was used as the negative control. Reactions were incubated at 30° C. for 1 hr. prior to loading on a 10-20% gradient SDS-PAGE. The gel was fixed, dried and exposed to film.
A methylation reaction was performed in order to evaluate whether the cloned full-length hCARM1 had methylating activity. Mouse CARM1 has been previously shown to specifically methylate Histone H3 in vitro and in vivo.

The test system of test [1] is ER dependent promoter reporter in T47D cells. The experiment in a line: ER dependent luciferase reporter assay in transfected T47D cells. Type of test: cell-based, human. To be noted: hCARM1 co-transfected with GRIP-1 and ER, compared to GRIP-1 and ER alone. The method, then:
Transfection protocol: Cells were plated in 12 well-dishes and allowed to adhere and grow overnight such that they were 80% confluent at the time of transfection. Tranfections were performed in triplicate using Lipofectamine 2000 (Gibco) and OptiMEM media. Total amount of DNA transfected was held constant within experiments. Six hrs. post transfection the Lipofectamine-DNA mix was removed and replaced with fresh media containing 10% serum. Hormone (dihydrotestosterone or estradiol) was added at this time and reporter activation measured after 24 hr.
Mouse CARM1 has been implicated as a coactivator of the androgen and estrogen receptor mediated signaling pathways along with the well-known steroid coactivator GRIP-1. The contribution, if any, of the human clone to these pathways was investigated. […] Thus, antagonizing endogenous CARM1 is deleterious to hormone dependent activation by endogeous ER.
Background: In a reporter assay the amount or activity of a reporter protein is the signal.

B1: hCARM1: cloned full-length human CARM1, produced in and purified from baculovirus infected insect cells; transfected as cDNA in cell assays (protein, UniProt Q86X55 1-608, looked up)
chain: MAAAAAAVGPGAGGAGSAVPGGAGPCATVSVFPGARLLTIGDANGEIQRHAEQQALRLEVRAGPDSAGIALYSHEDVCVFKCSVSRETECSRVGKQSFIITLGCNSVLIQFATPNDFCSFYNILKTCRGHTLERSVFSERTEESSAVQYFQFYGYLSQQQNMMQDYVRTGTYQRAILQNHTDFKDKIVLDVGCGSGILSFFAAQAGARKIYAVEASTMAQHAEVLVKSNNLTDRIVVIPGKVEEVSLPEQVDIIISEPMGYMLFNERMLESYLHAKKYLKPSGNMFPTIGDVHLAPFTDEQLYMEQFTKANFWYQPSFHGVDLSALRGAAVDEYFRQPVVDTFDIRILMAKSVKYTVNFLEAKEGDLHRIEIPFKFHMLHSGLVHGLAFWFDVAFIGSIMTVWLSTAPTEPLTHWYQVRCLFQSPLFAKAGDTLSGTCLLIANKRQSYDISIVAQVDQTGSKSSNLLDLKNPFFRYTGTTPSPPPGSHYTSPSENMWNTGSTYNLSSGMAVAGMPTAYDLSSVIASGSSVGHNNLIPLANTGIVNHTHSRMGSIMSTGIVQGSSGAQGSGGGSTSAHYAVNSQFTMGGPAISMASPMSIPTNTMHYGS
modifications: full-length
notes: cloned full-length human CARM1, produced in and purified from baculovirus infected insect cells; transfected as cDNA in cell assays
In the case of B1, the “methylation of Histone H3 by hCARM1” value in the test on Histone H3 is “methylates Histone H3 efficiently”. Besides, in test [1], the “estradiol mediated induction of ER dependent luciferase reporter” value is “concentration dependent increase”.
